We go through two molecules from patent US20200277405A1, “COMPOSITION FOR ANTIBODY-DRUG CONJUGATE DIRECTED AGAINST TUMOR-CELL ASSOCIATED POLYSIALIC ACID” (Cornell University, priority 2019, published 2020).

One experiment concerns ST8SiaII KO SW2 cells. Nature of the experiment: Flow cytometry binding to ST8SiaII knockout cells. Format: cell-based, human. From the text: FIGS. 8A-8C depict binding of polySia-specific mAb to ST8SiaII and ST8SiaIV knockout cell lines. […] Data are the geometric mean fluorescence intensity (MFI), with the values reported as the average of three replicates and the error represented as the standard deviation of the mean. […] In the ST8SiaII KO SW2 cells, 73% of the population (FL1-H-) binds mo735 below the level of the wild-type SW2 cells. […] In the ST8SiaIV KO SW2 cells, 68% of the population (FL1-H-) binds mo735 below the level of the wild-type SW2 cells.
CRISPR guide RNAs targeting ST8SiaII (crRNA1: […]; SEQ ID NO: 5) and ST8Sia4 (crRNA1: […]; SEQ ID NO: 6) were purchased from Genscript in the pLentiCRISPR v2 vector. Knockout cell lines were generated in SW2 cells using protocols described by Zhang and colleagues (Shalem et al., “Genome-Scale CRISPR-Cas9 Knockout Screening in Human Cells,” Science 343:84-7 (2014), which is hereby incorporated by reference in its entirety). Briefly, after lentiviral transduction, cells were maintained under selection with 1 μg/mL puromycin for at least 14 days prior to analysis by flow cytometry.
Cancer cells were trypsinized and collected with media, followed by three washes in PBS. […] Cells were washed three times, resuspended in 500 μL of 0.5% BSA in PBS, and analyzed on a BD FACSCalibur flow cytometer using Cell Quest Pro software (BD Biosciences).

The test system of the next experiment is SW2 cells. Kind of experiment: Supplementary internalization assays. The format is cell-based, human. To be noted: increases with concentration and time. The text has this: FIGS. 11A-11D depict internalization of mo735 by polySia-expressing cancer cells. […] Trypan blue was used to quench extracellular fluorescence. […] Cell membranes were labeled with wheat germ agglutinin (WGA,) and nuclei were stained with Hoescht. Scale bar, 10 μm. […] Cell membranes were labeled with wheat germ agglutinin (WGA) and nuclei were stained with Hoescht. Scale bar, 10 μm. […] Images include external mo735 detected with anti-mouse AF488, internal mo735 detected with anti-mouse AF647, nuclei stained with Hoescht, and a merged image. Scale bar, 10 μm.
For supplementary internalization assays, AF488-labeled isotype and mo735 antibodies were incubated with trypsinized SW2 cells at various concentrations for 2 h. Upon measurement in the flow cytometer, the extracellular fluorescence was quenched using trypan blue (final concentration 0.2%). For each sample, the mean fluorescence intensity (MFI) of 10,000 cells was measured in triplicate. […] Antibody internalization was also assessed according to the protocol described by Schmitz and coworkers (Diestel et al., “NCAM is Ubiquitylated, Endocytosed and Recycled in Neurons,” J. Cell. Sci. 120:4035-49 (2007), which is hereby incorporated by reference in its entirety), cells were incubated for 1 or 4 h at 37° C. with 150 nM mo735 in cell culture media. […]

The next experiment has as its system cells and tissues. To be noted: previously published IHC results (Zhang et al.); cited from earlier work.
The conditions of experiment [1]: previous SPR and ITC experiments; cited from earlier work.
In another experiment the test system is polysialylated NCAM. Nature of the experiment: Glycoprotein array specificity profiling. Format: binding, chicken. On the procedure:
FIGS. 2A-2D depict binding specificity and affinity of the ch735 antibody. […] ELISA signals (Abs370) were obtained with anti-human IgG secondary antibodies. […] Antibodies were assayed at 1 μg/mL and detected with anti-human IgG secondary antibodies. […] Antibodies were assayed at 10 μg/mL and detected with anti-mouse IgG secondary antibodies.
FIGS. 3A-3D depict binding specificity and affinity of mo735 antibody. […] ELISA signals (Abs370) were obtained with anti-mouse IgG secondary antibodies. […] Antibodies were assayed at 1 μg/mL and detected with anti-mouse IgG secondary antibodies. […] Antibodies were assayed at 10 μg/mL and detected with anti-mouse IgG secondary antibodies.
Specificity of mo735 and ch735 was determined using printed glycan arrays 5.3 and 5.4 at the CFG. Both antibodies were analyzed at 10 μg/mL with 5 μg/mL of anti-mouse or anti-human Alexa-Fluor 647 (AF647)-conjugated secondary, respectively. Specificity of mo735 (1 μg/mL) and ch735 (10 μg/mL) was also assessed on a custom glycoprotein array that contained ˜40-50 glycoproteins including chicken brain NCAM and endoN-treated chicken brain NCAM.

B1: mo735: well-known mouse-derived IgG2a monoclonal antibody 735 targeting polysialic acid (antibody, V domains shown)
VH: QIQLQQSGPELVRPGASVKISCKASGYTFTDYYIHWVKQRPGEGLEWIGWIYPGSGNTKYNEKFKGKATLTVDTSSSTAYMQLSSLTSEDSAVYFCARGGKFAMDYWGQGTSVTVSS
VL: DVVMTQTPLSLPVSLGDQASISCRSSQSLVHSNGNTYLYWYLQKPGQSPKPLIYRVSNRFSGVPDRFSGSGSGTDFTLKISRVEAEDLGVYFCFQGTHVPYTFGGGTRLEIK
For the molecule B1, in the experiment with ST8SiaII KO SW2 cells, the “population (FL1-H-) binding below the level of wild-type SW2 cells” value is recorded as 73%. Also, the antibody internalization result with SW2 cells is “comparable internalization”. Moreover, the “IHC reactivity with cells and tissues” value in the experiment on cells and tissues is “reacted with only a limited number of cells and tissues”. Further, in experiment [1], the “preferred polySia chain length” value is 8-11 sialic acid residues.

B2: ch735: chimeric human IgG1 polySia-specific mAb made by swapping variable regions of mouse mAb 735 (antibody, V domains shown)
VH: B1 VH
VL: B1 VL
On to B2, for which the glycoprotein array binding entry in the experiment with polysialylated NCAM (array of ~50 glycoproteins) is listed as “strong preference for polysialylated NCAM”. Moreover, the “signal towards any other glycomolecules” value in the experiment with polysialylated NCAM (microarrays, including endoN-treated NCAM spotted on the glycoprotein array) is on record as “no significant signal”.
